{"source": "patent US20070098681A1", "about": "(published 2007)", "binders": {"B1": {"name": "Flag-Apo2L.DR4-8 (ligand)", "chain": "VRERGPQRVAAHITGTRGRSNTLSSPNSKNEKALGRKINSWESSRSGHSFLSNLHLRNGELVIHEKGFYYIYSQTAFRFSEEIKEVTRNDKQMVQYIYKWTDYPDPILLMKSARNSCWSKDAEYGLYSIYQGGIFELKENDRIFVSVTNEHLIDMDHEASFFGAFLVG"}, "B2": {"name": "Flag-Apo2L.DR4-9 (ligand)", "chain": "B1 chain with V86R"}, "B3": {"name": "Flag-Apo2L.DR5-21 (ligand)", "chain": "B1 chain with R78K, S80K, V86N, R88K, W100Y, D102S, H151D, I153L, D154N, D156E"}, "B4": {"name": "Flag-Apo2L.DR5-1 (ligand)", "chain": "B1 chain with R78K, S80K, V86N, R88K, W100Y, D102S, H151A"}, "B5": {"name": "Apo2L/TRAIL(114-281) mutant DR5-4 (ligand)", "chain": "B1 chain with S80R, V86N, R88K, W100Y, D102S, H151Q, I153L, D156N"}, "B6": {"name": "Flag-Apo2L.DR5-2 (ligand)", "chain": "B1 chain with R78K, S80K, V86N, R88K, W100Y, D102S"}, "B7": {"name": "Apo2L.DR5-8 (ligand)", "chain": "B1 chain with A76Q, R78K, S80R, V86N, R88K, W100Y, D102S, H151R, I153L, D154Q", "notes": "also called Apo2L/TRAIL.DR5-8"}, "B8": {"name": "Apo2L/TRAIL(114-281) mutant DR5-5 (ligand)", "chain": "B1 chain with A76S, S80T, V86N, R88K, W100Y, D102S, H151G, I153L, D156N"}, "B9": {"name": "Apo2L/TRAIL(114-281) mutant DR5-11 (ligand)", "chain": "B1 chain with S80K, V86N, R88K, W100Y, D102S, H151G, I153V, D156S"}, "B10": {"name": "Apo2L/TRAIL(114-281) mutant DR5-23 (ligand)", "chain": "B1 chain with R78K, S80R, V86N, R88K, W100Y, D102S, H151S, I153L, D156E", "notes": "Untagged, from pAPOK5.0, purified from E. coli"}, "B11": {"name": "Apo2L.DR5-8C (ligand)", "chain": "B1 chain with A76Q, R78K, S80R, V86N, R88K, W100Y, D102S, I153L"}, "B12": {"name": "Flag-Apo2L.DR5-8 (ligand, not shown: small tags and cut ends)", "chain": "B1 chain with A76Q, R78K, S80R, V86N, R88K, W100Y, D102S, H151R, I153L, D154Q", "modifications": "N-terminal Flag epitope tag (pFLAG-MAC) is not written because its letters are not given"}, "B13": {"name": "Apo2L.DR5-8B (ligand)", "chain": "B1 chain with A76Q, R78K, S80R, V86N, R88K, W100Y, D102S"}}, "key": {"[1]": {"biological_target": "T1, DR4-IgG (human)", "T1 construct": "Mature DR4 ECD (amino acids 1-218); Made in human 293 cells; also called DR4 receptor immunoadhesin", "assay": "AlphaQuest displacement of biotinylated Apo2L/TRAIL from receptor-IgG; ratio to Flag-Apo2L.WT", "excerpt": "(§1) This assay produces a signal when a “donor” and “acceptor” bead are brought in close proximity facilitating singlet oxygen-mediated, fluorescence resonance energy transfer. […] The acceptor bead is coated with Staphylococcal Protein A and is used to capture the receptor-IgG protein."}, "[2]": {"biological_target": "T2, DcR1 receptor-IgG (UniProt O14798 26-236, limits assumed)", "T2 construct": "Receptor-IgG protein captured on Protein A acceptor beads; construct not described; not shown: IgG portion, not described", "T2 sequence (looked up)": "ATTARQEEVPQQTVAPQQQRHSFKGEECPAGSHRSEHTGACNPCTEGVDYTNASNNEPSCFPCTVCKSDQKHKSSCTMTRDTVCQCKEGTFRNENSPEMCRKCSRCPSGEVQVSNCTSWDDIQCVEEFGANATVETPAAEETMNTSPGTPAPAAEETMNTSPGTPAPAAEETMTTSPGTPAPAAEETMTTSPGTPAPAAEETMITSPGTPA", "assay": "AlphaQuest displacement of biotinylated Apo2L/TRAIL from receptor-IgG; ratio to Flag-Apo2L.WT", "excerpt": "as §1"}, "[3]": {"biological_target": "T3, DcR2-IgG (UniProt Q9UBN6 56-211, limits assumed)", "T3 construct": "not shown: IgG portion, not described", "T3 sequence (looked up)": "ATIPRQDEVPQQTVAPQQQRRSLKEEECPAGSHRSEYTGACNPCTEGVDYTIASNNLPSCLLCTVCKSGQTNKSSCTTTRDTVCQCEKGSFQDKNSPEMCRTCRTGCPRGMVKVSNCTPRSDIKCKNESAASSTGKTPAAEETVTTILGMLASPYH", "assay": "AlphaQuest displacement of biotinylated Apo2L/TRAIL from receptor-IgG; ratio to Flag-Apo2L.WT", "excerpt": "as §1"}, "[4]": {"biological_target": "T1, DR4-IgG", "assay": "BIAcore SPR; KD relative to Flag.Apo2L.WT"}, "[5]": {"biological_target": "DR5-IgG (human)", "assay": "BIAcore SPR; KD relative to Flag.Apo2L.WT"}, "[6]": {"biological_target": "DR5-IgG (human)", "assay": "AlphaQuest displacement of biotinylated Apo2L/TRAIL from receptor-IgG; ratio to Flag-Apo2L.WT", "excerpt": "as §1"}, "[7]": {"biological_target": "T1, DR4-IgG", "assay": "BIAcore SPR, receptor-IgG immobilised; ratio to wild-type Apo2L/TRAIL(114-281)", "procedure": "(§2) Briefly, dissociation constants (Kd) for binding of Apo-2L variants (see Tables II and III) to immobilized receptor immunoadhesins were determined from surface plasmon resonance (SPR) measurements on a Pharmacia BIAcore 3000. DR5-IgG (also referred to as Apo-2-IgG) and DcR2-IgG receptor immunoadhesins were prepared as described in WO98/51793 published November 19, 1998 and WO99/10484 published Mar. 9, 1999, respectively. DR4-IgG was prepared as follows. A mature DR4 ECD sequence (amino acids 1-218; Pan et al., supra) was cloned into a pCMV-1 Flag vector (Kodak) downstream of the Flag signal sequence and fused to the CH1, hinge and Fc region of human immunoglobulin G₁ heavy chain as described previously [Aruffo et al., Cell, 61:1303-1313 (1990)]. The immunoadhesin was expressed by transient transfection into human 293 cells and purified from the cell supernatants by protein A affinity chromatography, as described by Ashkenazi et al., Proc. Natl. Acad. Sci., 88:10535-10539 (1991)]. The receptor immunoadhesin proteins were coupled to the sensor chip surface at a level of 300-500 resonance units using amine coupling chemistry (Pharmacia Biosensor). Sensorgrams were recorded for Apo-2L binding at concentrations ranging from 15.6 nM to 500 nM in 2-fold increments. The kinetics constants were determined by non-linear regression analysis and used to calculate the binding constants."}, "[8]": {"biological_target": "DR5-IgG (human)", "assay": "BIAcore SPR, receptor-IgG immobilised; ratio to wild-type Apo2L/TRAIL(114-281)", "procedure": "as §2"}, "[9]": {"biological_target": "T1, DR4-IgG", "assay": "BIAcore SPR, receptor-IgG immobilised", "procedure": "as §2\n(§3) These variants were expressed and purified, the purified proteins were assayed for receptor-binding by BIAcore® and bioactivity on SK-MES lung carcinoma cells, as previously described (see, e.g. Hymowitz et al. (2000) Biochemistry 39, 633-640)."}, "[10]": {"biological_target": "T4, DR5-IgG (human)", "T4 construct": "also called Apo-2-IgG", "assay": "BIAcore SPR, receptor-IgG immobilised", "procedure": "as §2, §3"}, "[11]": {"biological_target": "T4, DR5-IgG", "assay": "BIAcore SPR, receptor-IgG immobilised; ratio to wild-type Apo2L/TRAIL(114-281)", "procedure": "as §2"}, "[12]": {"biological_target": "DR5-IgG (human)", "assay": "BIAcore SPR, receptor-IgG immobilised", "procedure": "as §2, §3"}, "[13]": {"biological_target": "T4, DR5-IgG", "assay": "AlphaQuest displacement of biotinylated Apo2L/TRAIL from receptor-IgG; ratio to Flag-Apo2L.WT", "excerpt": "as §1"}, "[14]": {"biological_target": "T4, DR5-IgG", "assay": "BIAcore SPR; KD relative to Flag.Apo2L.WT"}}, "note": "Where a chain is given by its changes, count along the chain named."}
{"binder": "B1", "values": [{"measurement": "IC50 ratio (mutant/wt)", "setting": "[1]", "result": "1 ratio (mutant/wt)"}, {"measurement": "IC50 ratio (mutant/wt)", "setting": "[2]", "result": "5.5 ratio (mutant/wt)"}, {"measurement": "IC50 ratio (mutant/wt)", "setting": "[3]", "result": "15 ratio (mutant/wt)"}, {"measurement": "KD ratio (mut/wt)", "setting": "[4]", "result": "0.2 ratio (mut/wt)"}, {"measurement": "KD ratio (mut/wt)", "setting": "[5]", "result": "1100 ratio (mut/wt)"}]}
{"binder": "B2", "values": [{"measurement": "IC50 ratio (mutant/wt)", "setting": "[1]", "result": "1.1 ratio (mutant/wt)"}, {"measurement": "IC50 ratio (mutant/wt)", "setting": "[2]", "result": "4 ratio (mutant/wt)"}, {"measurement": "IC50 ratio (mutant/wt)", "setting": "[3]", "result": "18 ratio (mutant/wt)"}, {"measurement": "KD ratio (mut/wt)", "setting": "[4]", "result": "4.3 ratio (mut/wt)"}, {"measurement": "KD ratio (mut/wt)", "setting": "[5]", "result": "1200 ratio (mut/wt)"}]}
{"binder": "B3", "values": [{"measurement": "IC50 ratio (mutant/wt)", "setting": "[3]", "result": "9.4 ratio (mutant/wt)"}]}
{"binder": "B4", "values": [{"measurement": "IC50 ratio (mutant/wt)", "setting": "[6]", "result": "2.4 ratio (mutant/wt)"}, {"measurement": "IC50 ratio (mutant/wt)", "setting": "[3]", "result": "32 ratio (mutant/wt)"}, {"measurement": "KD ratio (mut/wt)", "setting": "[4]", "result": "11 ratio (mut/wt)"}, {"measurement": "KD ratio (mut/wt)", "setting": "[5]", "result": "2.2 ratio (mut/wt)"}]}
{"binder": "B5", "values": [{"measurement": "KD ratio (mutant/wt)", "setting": "[7]", "result": "3.1 ratio (mutant/wt)"}, {"measurement": "KD ratio (mutant/wt)", "setting": "[8]", "result": "1.3 ratio (mutant/wt)"}]}
{"binder": "B6", "values": [{"measurement": "IC50 ratio (mutant/wt)", "setting": "[6]", "result": "2.8 ratio (mutant/wt)"}, {"measurement": "IC50 ratio (mutant/wt)", "setting": "[3]", "result": "5 ratio (mutant/wt)"}, {"measurement": "KD ratio (mut/wt)", "setting": "[4]", "result": "11 ratio (mut/wt)"}, {"measurement": "KD ratio (mut/wt)", "setting": "[5]", "result": "1.9 ratio (mut/wt)"}]}
{"binder": "B7", "values": [{"measurement": "DR4-binding (ratio relative to wild-type Apo2L)", "setting": "[9]", "result": "> 25 ratio relative to wild-type Apo2L"}, {"measurement": "DR5-binding (ratio relative to wild-type Apo2L)", "setting": "[10]", "result": "0.6 ratio relative to wild-type Apo2L"}]}
{"binder": "B8", "values": [{"measurement": "KD ratio (mutant/wt)", "setting": "[7]", "result": "12.4 ratio (mutant/wt)"}, {"measurement": "KD ratio (mutant/wt)", "setting": "[8]", "result": "2.5 ratio (mutant/wt)"}]}
{"binder": "B9", "values": [{"measurement": "KD ratio (mutant/wt)", "setting": "[7]", "result": "5 ratio (mutant/wt)"}, {"measurement": "KD ratio (mutant/wt)", "setting": "[8]", "result": "2.2 ratio (mutant/wt)"}]}
{"binder": "B10", "values": [{"measurement": "KD ratio (mutant/wt)", "setting": "[7]", "result": "105 ratio (mutant/wt)"}, {"measurement": "KD ratio (mutant/wt)", "setting": "[11]", "result": "2.4 ratio (mutant/wt)"}]}
{"binder": "B11", "values": [{"measurement": "DR4-binding (ratio relative to wild-type Apo2L)", "setting": "[9]", "result": "5.5 ratio relative to wild-type Apo2L"}, {"measurement": "DR5-binding (ratio relative to wild-type Apo2L)", "setting": "[12]", "result": "0.6 ratio relative to wild-type Apo2L"}]}
{"binder": "B12", "values": [{"measurement": "IC50 ratio (mutant/wt)", "setting": "[13]", "result": "0.7 ratio (mutant/wt)"}, {"measurement": "KD ratio (mut/wt)", "setting": "[14]", "result": "0.8 ratio (mut/wt)"}]}
{"binder": "B13", "values": [{"measurement": "DR4-binding (ratio relative to wild-type Apo2L)", "setting": "[9]", "result": "2.5 ratio relative to wild-type Apo2L"}, {"measurement": "DR5-binding (ratio relative to wild-type Apo2L)", "setting": "[12]", "result": "0.6 ratio relative to wild-type Apo2L"}]}
